In patent US20230093399A1, “METHODS FOR GENERATING PLURIPOTENT STEM CELL-DERIVED BROWN FAT CELLS” (AgeX Therapeutics, Inc., priority 2013, published 2023):

Tests used:
Type in all cases: cell-based, human
cell line E163 = test: Differentiation of cell line E163 in HyStem, gene expression; conditions: E163 passage 12; 21 days in HyStem with 10 ng/mL BMP4
Experimental: (§1) HyStem-C (BioTime, Inc. Alameda, Calif.) (BioTime, Alameda, Calif., USA) was reconstituted following the manufacturer's instructions. Briefly, the HyStem component (thiol modified hyaluronan, 10 mg) was dissolved in 1.0 ml degassed deionized water for about 20 minutes to prepare a 1% w/v solution. The Gelin-S component (thiol modified gelatin, 10 mg) was dissolved in 1 ml degassed deionized water to prepare a 1% w/v solution, and PEGDA (PEG diacrylate, 10 mg) was dissolved in 0.5 ml degassed deionized water to prepare a 2% w/v solution. HyStem (1 ml, 1% w/v) was mixed with Gelin-S (1 ml, 1% w/v) immediately before use. Pelleted cells were resuspended in recently prepared HyStem:Gelin-S (1:1 v/v) mix described above. Upon the addition of crosslinker PEGDA, the cell suspension, at a final concentration of 2.0×10^7 cells/ml, was aliquoted at 25 μl aliquot four to five times into each well of 6 well plates (Corning 3516) after partial gelation to form attached beads. Following complete gelation (20 minutes), chondrogenic medium was added to each well (i.e about 4 ml/each well of a 6 well plate). […]

cell line E72 = test: Differentiation of cell line E72 in HyStem, gene expression
Experimental: as §1
(§2) The Gelin-S® component (10 mg of thiol-modified gelatin (BioTime)) is dissolved in 1.0 ml of degassed deionized water to prepare a 1% w/v solution, and polyethylene glycol diacrylate (10 mg of PEGDA) is dissolved in 0.5 ml of degassed deionized water to prepare a 2% w/v solution. […] At the desired time point, hydrogel constructs were either fixed and processed for immunohistochemical analysis or lysed using RLT (Qiagen, CA, USA) with 1% beta-mercaptoethanol for total RNA to analyze transcript expression using quantitative real-time PCR (qRT-PCR) and/or whole-genome microarray.
(§3) Total RNA was extracted directly from cells growing in 6-well plates or 10 cm tissue culture dishes using Qiagen RNeasy mini kits according to the manufacturer's instructions. RNA concentrations were measured using a Beckman DU530 or Nanodrop spectrophotometer and RNA quality was determined by denaturing agarose gel electrophoresis or using an Agilent 2100 bioanalyzer. […] The cRNA was hybridized to Illumina BeadChips, processed, and read using a BeadStation array reader according to the manufacturer's instructions (Illumina, San Diego, Calif., USA).

cell line E75 = test: Differentiation of cell line E75 in HyStem, gene expression
Experimental: as §1, §2, §3

B1: BMP4: Bone Morphogenetic Protein 4, TGF-beta superfamily member (protein, UniProt P12644 293-408, looked up)
Bone morphogenetic protein 4: SPKHHSQRARKKNKNCRRHSLYVDFSDVGWNDWIVAPPGYQAFYCHGDCPFPLADHLNSTNHAIVQTLVNSVNSSIPKACCVPTELSAISMLYLDEYDKVVLKNYQEMVVEGCGCR
adipocyte markers FABP4 and CD36 and candidate BAT cell progenitor markers such as C19orf80 (cell line E163): relatively high levels
markers normally associated with enamel, enamelin (ENAM) and amelogenin (AMELX) (cell line E72; E72, HyStem in the presence of BMP4 and TGFβ3): expressed the markers normally associated with enamel
markers of endochondral ossification including COL2A1, ALPL, IBSP, and osteopontin (SPP1) (cell line E72; E72 passage 11, 21 days in HyStem with 10 ng/mL TGFβ3 together with BMP4 (10 ng/mL) or BMP2 (50 ng/mL)): relatively high levels
adipocyte markers FABP4 and CD36 (cell line E72; E72 passage 12, 21 days in HyStem with 10 ng/mL BMP4): relatively high levels
ameloblastin (AMBN) expression (cell line E75; E75, 21 days HyStem, BMP4 and TGFβ3): expressed the additional marker normally associated with enamel called ameloblastin
markers normally associated with enamel, enamelin (ENAM) and amelogenin (AMELX) (cell line E75; E75, HyStem in the presence of BMP4 and TGFβ3): expressed the markers normally associated with enamel
adipocyte markers FABP4 and CD36 and candidate BAT cell progenitor markers such as C19orf80 (cell line E75; E75 passage 11, 21 days in HyStem with 10 ng/mL BMP4): relatively high levels
markers of endochondral ossification including COL2A1, ALPL, IBSP, and osteopontin (SPP1) (cell line E75; E75 passage 11, 21 days in HyStem with 10 ng/mL TGFβ3 together with BMP4 (10 ng/mL) or BMP2 (50 ng/mL)): relatively high levels
